In US20200121814A1 (GENERAL HOSPITAL, published 2020):
Bridge positions count the residues as written; N and C are the ends. Ends that are not written are not given here. * marks the point of attachment. Biotin = O=C1N[C@H]2[C@H](CS[C@H]2CCCCC(=O)*)N1

Columns and labels:
[1] = target: HER3 extracellular domain (ECD) (R&D Systems) (human) (UniProt P21860); assay: ELISA of purified phage on adsorbed HER3 ECD, anti-M13-HRP and ABTS
[2] = target: HER3 on cells (MDA-MB-453, moderate HER3; HCC-1954, low HER3) (human) (UniProt P21860); assay: cell binding on MDA-MB-453 cells (moderate HER3), 250 nM peptide, streptavidin-HRP and ABTS
[3] = target: bovine serum albumin (bovine) (UniProt P02769); assay: peptide ELISA on immobilized protein, 250 nM peptide, streptavidin-HRP and ABTS
[4] = target: T1, HER2 extracellular domain (UniProt P04626 23-652, limits assumed); assay: peptide ELISA on immobilized ECD, 250 nM peptide, streptavidin-HRP and ABTS
T1 construct: extracellular domain; Immobilized on plate for peptide ELISA; also called ErbB2; neu

[5] = target: T2, EGFR extracellular domain (UniProt P00533 25-645, limits assumed); assay: as above
T2 construct: extracellular domain; Immobilized on plate for peptide ELISA

[6] = target: T3, HER3 extracellular domain (ECD) (R&D Systems) (human, UniProt P21860 20-643); assay: as above
T3 construct: extracellular domain; Adsorbed to Maxisorp plates in the ELISAs; also called HER3 ECD; ERBB3

[7] = target: T3, HER3 extracellular domain (ECD) (R&D …); assay: phage binding to HER3, normalized to parent phage

T3 sequence (P21860 20-643): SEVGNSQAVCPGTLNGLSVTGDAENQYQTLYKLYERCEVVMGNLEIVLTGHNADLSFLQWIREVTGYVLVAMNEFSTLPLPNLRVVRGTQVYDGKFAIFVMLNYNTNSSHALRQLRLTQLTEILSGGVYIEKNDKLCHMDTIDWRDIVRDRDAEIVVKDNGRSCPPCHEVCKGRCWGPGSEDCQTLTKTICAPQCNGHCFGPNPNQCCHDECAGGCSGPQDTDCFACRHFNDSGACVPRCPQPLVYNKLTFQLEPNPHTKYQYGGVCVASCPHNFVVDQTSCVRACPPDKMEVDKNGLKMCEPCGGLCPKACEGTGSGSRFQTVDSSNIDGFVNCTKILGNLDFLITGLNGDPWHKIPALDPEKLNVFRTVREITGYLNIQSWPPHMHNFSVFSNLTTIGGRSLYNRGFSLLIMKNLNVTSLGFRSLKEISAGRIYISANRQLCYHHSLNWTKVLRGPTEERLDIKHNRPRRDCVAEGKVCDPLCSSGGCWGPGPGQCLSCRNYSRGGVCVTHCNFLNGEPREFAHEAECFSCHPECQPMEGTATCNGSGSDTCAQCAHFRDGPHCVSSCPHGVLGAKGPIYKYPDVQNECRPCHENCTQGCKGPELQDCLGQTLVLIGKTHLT
HER3 on cells (MDA-MB-453, moderate HER3; HCC-1954, low HER3) (human), sequence (P21860 20-1342): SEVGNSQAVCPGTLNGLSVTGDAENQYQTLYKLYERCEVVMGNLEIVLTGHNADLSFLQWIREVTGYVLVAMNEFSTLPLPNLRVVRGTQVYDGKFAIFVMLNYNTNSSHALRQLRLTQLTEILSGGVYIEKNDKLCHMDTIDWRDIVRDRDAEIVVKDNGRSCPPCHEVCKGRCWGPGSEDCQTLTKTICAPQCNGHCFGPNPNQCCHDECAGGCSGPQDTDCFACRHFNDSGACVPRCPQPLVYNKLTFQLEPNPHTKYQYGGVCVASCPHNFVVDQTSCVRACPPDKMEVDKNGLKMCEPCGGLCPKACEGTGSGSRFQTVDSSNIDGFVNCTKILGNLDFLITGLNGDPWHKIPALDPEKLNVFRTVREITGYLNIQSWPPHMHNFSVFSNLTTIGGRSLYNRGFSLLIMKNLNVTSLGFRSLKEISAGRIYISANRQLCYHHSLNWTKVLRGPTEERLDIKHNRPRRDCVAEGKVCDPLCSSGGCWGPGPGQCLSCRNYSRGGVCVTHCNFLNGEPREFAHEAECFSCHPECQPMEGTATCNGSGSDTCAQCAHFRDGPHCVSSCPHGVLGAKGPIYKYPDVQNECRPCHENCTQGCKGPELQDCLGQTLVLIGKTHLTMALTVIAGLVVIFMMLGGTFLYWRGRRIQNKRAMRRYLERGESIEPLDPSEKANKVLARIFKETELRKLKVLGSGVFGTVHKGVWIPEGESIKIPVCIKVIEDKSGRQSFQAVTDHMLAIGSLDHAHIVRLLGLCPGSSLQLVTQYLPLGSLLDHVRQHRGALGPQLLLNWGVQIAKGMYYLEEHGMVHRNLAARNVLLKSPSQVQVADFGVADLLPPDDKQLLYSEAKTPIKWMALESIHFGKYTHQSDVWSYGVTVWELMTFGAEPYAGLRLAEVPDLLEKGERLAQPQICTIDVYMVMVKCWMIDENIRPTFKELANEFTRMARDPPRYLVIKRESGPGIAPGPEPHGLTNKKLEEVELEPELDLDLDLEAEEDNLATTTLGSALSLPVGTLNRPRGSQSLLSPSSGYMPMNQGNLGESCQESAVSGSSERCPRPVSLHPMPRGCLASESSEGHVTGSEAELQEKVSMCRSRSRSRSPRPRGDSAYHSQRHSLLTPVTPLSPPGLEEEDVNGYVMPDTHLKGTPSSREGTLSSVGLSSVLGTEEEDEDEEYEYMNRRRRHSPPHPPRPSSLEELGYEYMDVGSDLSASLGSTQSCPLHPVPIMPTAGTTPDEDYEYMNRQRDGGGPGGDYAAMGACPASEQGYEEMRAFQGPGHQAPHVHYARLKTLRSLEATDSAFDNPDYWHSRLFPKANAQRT
HER3 extracellular domain (ECD) (R&D Systems) (human), sequence (P21860 20-643): as the sequence (P21860 20-643) above
bovine serum albumin (bovine), sequence (P02769 25-607 limits assumed): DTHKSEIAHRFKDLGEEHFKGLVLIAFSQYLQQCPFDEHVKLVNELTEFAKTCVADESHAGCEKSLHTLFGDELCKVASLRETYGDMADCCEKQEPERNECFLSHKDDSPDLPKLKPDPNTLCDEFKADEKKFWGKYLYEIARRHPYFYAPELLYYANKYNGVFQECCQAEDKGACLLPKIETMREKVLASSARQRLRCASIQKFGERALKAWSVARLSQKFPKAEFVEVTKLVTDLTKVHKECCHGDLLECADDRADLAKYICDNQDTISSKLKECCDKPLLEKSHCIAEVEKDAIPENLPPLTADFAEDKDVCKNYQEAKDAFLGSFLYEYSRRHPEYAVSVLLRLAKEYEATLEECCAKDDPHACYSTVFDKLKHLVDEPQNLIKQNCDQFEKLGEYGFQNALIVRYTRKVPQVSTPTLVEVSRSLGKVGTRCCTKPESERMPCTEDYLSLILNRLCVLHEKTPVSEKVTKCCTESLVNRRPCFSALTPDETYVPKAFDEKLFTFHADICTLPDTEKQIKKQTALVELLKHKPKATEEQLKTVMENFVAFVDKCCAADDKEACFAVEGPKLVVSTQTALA

For control phage bearing no peptide, the absorbance (background subtracted, 405 nm) [1] was 0.007 absorbance.

control peptide showed an absorbance (405 nm) [2] of 0.12 absorbance.

B1: HER3P1 (biotin-conjugated, N-terminal tri-glycine linker) (peptide)
peptide: Biotin-GGGCLPTKFRSC
modifications: disulfide 4-12 (inferred); not fully specified
notes: The formulas of the description print a beta A before G-G-G; also called HER3 peptide; the peptide
In the case of B1, the absorbance (405 nm) [3] is reported as 0.15 absorbance, the “absorbance (405 nm)” value [4] is reported as 0.22 absorbance and the “absorbance (405 nm)” value [5] is reported as 0.21 absorbance. For the same molecule, the “absorbance (405 nm)” value [6] was 0.82 absorbance.

B2: phage M1 (alanine mutant at position 2 of the HER3P1 binding sequence) (peptide, not shown: large carriers)
peptide: CAPTKFRSC
In the case of B2, the “decrease of binding against parent (HER3P1) phage” value (shortened to “decrease of binding against parent”) [7] is reported as at least 50%.

B3: phage M3 (alanine mutant at position 4 of the HER3P1 binding sequence) (peptide, not shown: large carriers)
peptide: CLPAKFRSC
In the case of B3, the “decrease of binding against parent” value [7] is reported as at least 50%.

B4: phage M2 (alanine mutant at position 3 of the HER3P1 binding sequence) (peptide, not shown: large carriers)
peptide: CLATKFRSC
For B4, the “decrease of binding against parent” value [7] was at least 50%.

B5: phage M7 (alanine mutant at position 8 of the HER3P1 binding sequence) (peptide, not shown: large carriers)
peptide: CLPTKFRAC
For B5, the “decrease of binding against parent” value [7] was at least 50%.

B6: phage M6 (alanine mutant at position 7 of the HER3P1 binding sequence) (peptide, not shown: large carriers)
peptide: CLPTKFASC
For B6, the “decrease of binding against parent” value [7] was at least 50%.
